Measurements: IntAct's records for PubMed 35512704

B1: Speckle-type POZ protein (Homo sapiens), O43791 (parent)
chain: MSRVPSPPPPAEMSSGPVAESWCYTQIKVVKFSYMWTINNFSFCREEMGEVIKSSTFSSGANDKLKWCLRVNPKGLDEESKDYLSLYLLLVSCPKSEVRAKFKFSILNAKGEETKAMESQRAYRFVQGKDWGFKKFIRRDFLLDEANGLLPDDKLTLFCEVSVVQDSVNISGQNTMNMVKVPECRLADELGGLWENSRFTDCCLCVAGQEFQAHKAILAARSPVFSAMFEHEMEESKKNRVEINDVEPEVFKEMMCFIYTGKAPNLDKMADDLLAAADKYALERLKVMCEDALCSNLSVENAAEILILADLHSADQLKTQAVDFINYHASDVLETSGWKSMVVSHPHLVAEAYRSLASAQCPFLGPPRKRLKQS
partner: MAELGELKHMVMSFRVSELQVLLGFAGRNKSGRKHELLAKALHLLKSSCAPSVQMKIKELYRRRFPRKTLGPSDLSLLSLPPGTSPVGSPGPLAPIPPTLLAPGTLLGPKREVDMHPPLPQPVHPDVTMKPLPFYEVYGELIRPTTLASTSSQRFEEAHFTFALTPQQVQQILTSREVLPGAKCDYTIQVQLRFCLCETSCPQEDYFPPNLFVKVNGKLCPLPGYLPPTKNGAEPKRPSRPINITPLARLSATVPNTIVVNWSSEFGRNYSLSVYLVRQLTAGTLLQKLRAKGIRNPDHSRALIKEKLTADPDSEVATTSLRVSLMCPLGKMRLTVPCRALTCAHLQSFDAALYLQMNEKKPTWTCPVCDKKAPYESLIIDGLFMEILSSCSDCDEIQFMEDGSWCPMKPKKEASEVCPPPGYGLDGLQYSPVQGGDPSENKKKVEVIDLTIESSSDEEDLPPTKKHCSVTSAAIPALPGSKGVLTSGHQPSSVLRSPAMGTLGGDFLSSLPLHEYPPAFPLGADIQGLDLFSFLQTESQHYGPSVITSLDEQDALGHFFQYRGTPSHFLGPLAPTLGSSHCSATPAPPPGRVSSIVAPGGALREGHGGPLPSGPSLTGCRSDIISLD
B2: Speckle-type POZ protein (Homo sapiens), O43791 (parent)
chain: B1 chain
partner: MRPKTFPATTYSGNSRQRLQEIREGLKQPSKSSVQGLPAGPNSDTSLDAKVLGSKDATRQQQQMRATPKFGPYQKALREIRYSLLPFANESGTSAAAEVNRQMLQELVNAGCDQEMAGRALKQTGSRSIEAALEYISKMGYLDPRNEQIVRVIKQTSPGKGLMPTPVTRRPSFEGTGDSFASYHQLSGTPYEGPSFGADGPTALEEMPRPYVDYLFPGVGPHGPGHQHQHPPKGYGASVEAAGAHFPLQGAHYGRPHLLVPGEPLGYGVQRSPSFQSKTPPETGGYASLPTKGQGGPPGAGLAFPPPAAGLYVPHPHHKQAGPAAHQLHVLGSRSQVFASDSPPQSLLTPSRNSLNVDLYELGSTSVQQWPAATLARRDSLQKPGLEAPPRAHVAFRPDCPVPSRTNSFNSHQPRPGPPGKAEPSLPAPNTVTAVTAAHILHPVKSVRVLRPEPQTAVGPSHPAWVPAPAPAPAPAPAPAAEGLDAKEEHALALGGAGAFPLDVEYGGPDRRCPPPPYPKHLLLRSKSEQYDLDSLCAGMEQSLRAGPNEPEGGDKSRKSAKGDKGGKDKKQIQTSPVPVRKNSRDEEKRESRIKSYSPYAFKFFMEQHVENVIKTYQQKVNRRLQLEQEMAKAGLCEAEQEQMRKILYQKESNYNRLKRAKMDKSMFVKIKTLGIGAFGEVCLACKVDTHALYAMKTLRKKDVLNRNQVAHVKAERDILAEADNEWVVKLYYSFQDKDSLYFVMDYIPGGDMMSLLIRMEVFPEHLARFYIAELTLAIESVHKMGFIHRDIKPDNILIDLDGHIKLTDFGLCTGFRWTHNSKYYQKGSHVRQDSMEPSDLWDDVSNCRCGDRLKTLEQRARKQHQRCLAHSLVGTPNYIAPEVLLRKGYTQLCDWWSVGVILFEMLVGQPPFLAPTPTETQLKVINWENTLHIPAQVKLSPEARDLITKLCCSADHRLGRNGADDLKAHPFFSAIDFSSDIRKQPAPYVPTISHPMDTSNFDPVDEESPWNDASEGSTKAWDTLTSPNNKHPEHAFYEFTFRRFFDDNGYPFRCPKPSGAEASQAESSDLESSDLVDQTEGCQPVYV
B3: Speckle-type POZ protein (Homo sapiens), O43791 (parent)
chain: B1 chain
partner: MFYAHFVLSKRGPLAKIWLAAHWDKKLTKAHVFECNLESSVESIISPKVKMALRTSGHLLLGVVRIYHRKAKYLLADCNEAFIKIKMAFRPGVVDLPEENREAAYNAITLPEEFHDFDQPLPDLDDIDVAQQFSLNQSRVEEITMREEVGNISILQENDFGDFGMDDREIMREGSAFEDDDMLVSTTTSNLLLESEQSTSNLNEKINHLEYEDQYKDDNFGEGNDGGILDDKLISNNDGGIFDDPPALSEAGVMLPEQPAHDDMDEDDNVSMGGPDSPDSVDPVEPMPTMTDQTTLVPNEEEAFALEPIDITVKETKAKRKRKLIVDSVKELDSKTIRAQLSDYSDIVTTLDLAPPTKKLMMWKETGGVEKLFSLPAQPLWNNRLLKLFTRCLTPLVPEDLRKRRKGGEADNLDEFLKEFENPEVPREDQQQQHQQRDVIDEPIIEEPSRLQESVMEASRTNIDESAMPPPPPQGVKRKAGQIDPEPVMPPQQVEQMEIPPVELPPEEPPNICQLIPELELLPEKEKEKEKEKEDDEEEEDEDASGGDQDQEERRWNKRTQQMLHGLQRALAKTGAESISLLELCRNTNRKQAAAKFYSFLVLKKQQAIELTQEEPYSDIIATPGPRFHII

Variants of: B1
Details: with pias3_human PIAS3, Q9Y6X2

Variant | effect of a mutation on the interaction
Y87C | with no effect

Variants of: B1
Details: with pias3_human PIAS3, Q9Y6X2
Remark: another data set of the same source

Variant | effect of a mutation on the interaction
F133V | with no effect

Variants of: B1
Details: with pias3_human PIAS3, Q9Y6X2
Remark: another data set of the same source

Variant | effect of a mutation on the interaction
F133L | with no effect

Variants of: B2
Details: with lats2_human LATS2, Q9NRM7

Variant | effect of a mutation on the interaction
F102C | with no effect

Variants of: B2
Details: with lats2_human LATS2, Q9NRM7
Remark: another data set of the same source

Variant | effect of a mutation on the interaction
Y87C | with no effect

Variants of: B2
Details: with lats2_human LATS2, Q9NRM7
Remark: another data set of the same source

Variant | effect of a mutation on the interaction
F133V | with no effect

Variants of: B2
Details: with lats2_human LATS2, Q9NRM7
Remark: another data set of the same source

Variant | effect of a mutation on the interaction
F133L | with no effect

Variants of: B3
Details: with rad21_human RAD21, O60216

Variant | effect of a mutation on the interaction
F133L | with no effect

Variants of: B3
Details: with rad21_human RAD21, O60216
Remark: another data set of the same source

Variant | effect of a mutation on the interaction
F133V | with no effect

Variants of: B3
Details: with rad21_human RAD21, O60216
Remark: another data set of the same source

Variant | effect of a mutation on the interaction
Y87C | with no effect

Variants of: B3
Details: with rad21_human RAD21, O60216
Remark: another data set of the same source

Variant | effect of a mutation on the interaction
F102C | with no effect
